{"source": "paper PMC3220584", "about": "(The Journal of Biological Chemistry, 2011)", "proteins": {"B1": {"name": "human collagen VI α3(VI) N-terminal N9-N1 region (domain or fragment, UniProt P12111 237-2028, looked up)", "chain": "AQDSADIIFLIDGSNNTGSVNFAVILDFLVNLLEKLPIGTQQIRVGVVQFSDEPRTMFSLDTYSTKAQVLGAVKALGFAGGELANIGLALDFVVENHFTRAGGSRVEEGVPQVLVLISAGPSSDEIRYGVVALKQASVFSFGLGAQAASRAELQHIATDDNLVFTVPEFRSFGDLQEKLLPYIVGVAQRHIVLKPPTIVTQVIEVNKRDIVFLVDGSSALGLANFNAIRDFIAKVIQRLEIGQDLIQVAVAQYADTVRPEFYFNTHPTKREVITAVRKMKPLDGSALYTGSALDFVRNNLFTSSAGYRAAEGIPKLLVLITGGKSLDEISQPAQELKRSSIMAFAIGNKGADQAELEEIAFDSSLVFIPAEFRAAPLQGMLPGLLAPLRTLSGTPEVHSNKRDIIFLLDGSANVGKTNFPYVRDFVMNLVNSLDIGNDNIRVGLVQFSDTPVTEFSLNTYQTKSDILGHLRQLQLQGGSGLNTGSALSYVYANHFTEAGGSRIREHVPQLLLLLTAGQSEDSYLQAANALTRAGILTFCVGASQANKAELEQIAFNPSLVYLMDDFSSLPALPQQLIQPLTTYVSGGVEEVPLAQPESKRDILFLFDGSANLVGQFPVVRDFLYKIIDELNVKPEGTRIAVAQYSDDVKVESRFDEHQSKPEILNLVKRMKIKTGKALNLGYALDYAQRYIFVKSAGSRIEDGVLQFLVLLVAGRSSDRVDGPASNLKQSGVVPFIFQAKNADPAELEQIVLSPAFILAAESLPKIGDLHPQIVNLLKSVHNGAPAPVSGEKDVVFLLDGSEGVRSGFPLLKEFVQRVVESLDVGQDRVRVAVVQYSDRTRPEFYLNSYMNKQDVVNAVRQLTLLGGPTPNTGAALEFVLRNILVSSAGSRITEGVPQLLIVLTADRSGDDVRNPSVVVKRGGAVPIGIGIGNADITEMQTISFIPDFAVAIPTFRQLGTVQQVISERVTQLTREELSRLQPVLQPLPSPGVGGKRDVVFLIDGSQSAGPEFQYVRTLIERLVDYLDVGFDTTRVAVIQFSDDPKVEFLLNAHSSKDEVQNAVQRLRPKGGRQINVGNALEYVSRNIFKRPLGSRIEEGVPQFLVLISSGKSDDEVDDPAVELKQFGVAPFTIARNADQEELVKISLSPEYVFSVSTFRELPSLEQKLLTPITTLTSEQIQKLLASTRYPPPAVESDAADIVFLIDSSEGVRPDGFAHIRDFVSRIVRRLNIGPSKVRVGVVQFSNDVFPEFYLKTYRSQAPVLDAIRRLRLRGGSPLNTGKALEFVARNLFVKSAGSRIEDGVPQHLVLVLGGKSQDDVSRFAQVIRSSGIVSLGVGDRNIDRTELQTITNDPRLVFTVREFRELPNIEERIMNSFGPSAATPAPPGVDTPPPSRPEKKKADIVFLLDGSINFRRDSFQEVLRFVSEIVDTVYEDGDSIQVGLVQYNSDPTDEFFLKDFSTKRQIIDAINKVVYKGGRHANTKVGLEHLRVNHFVPEAGSRLDQRVPQIAFVITGGKSVEDAQDVSLALTQRGVKVFAVGVRNIDSEEVGKIASNSATAFRVGNVQELSELSEQVLETLHDAMHETLCPGVTDAAKACNLDVILGFDGSRDQNVFVAQKGFESKVDAILNRISQMHRVSCSGGRSPTVRVSVVANTPSGPVEAFDFDEYQPEMLEKFRNMRSQHPYVLTEDTLKVYLNKFRQSSPDSVKVVIHFTDGADGDLADLHRASENLRQEGVRALILVGLERVVNLERLMHLEFGRGFMYDRPLRLNLLDLDYELAEQLDNIAEKA"}}, "biological_target": "the molecule itself", "assay": "SEC-MALS"}
{"protein": "B1", "values": [{"measurement": "stoichiometry N", "result": 2}]}
